Key:
Assay in all cases: ELISA on LAH peptide
[1] = target: B/MY04 LAH peptide (LAH-Fc fusion protein) (Influenza B virus B/Malaysia/2506/2004, UniProt P03461 425-480)
[2] = target: H3/X31 LAH peptide (LAH-Fc fusion protein) (Influenza A virus H3N2 A/Aichi/2/1968, UniProt P03436 421-475)
[3] = target: H5/VN04 LAH peptide (LAH-Fc fusion protein) (Influenza A virus H5 A/Vietnam/1203/2004, UniProt P87506 416-472)

Measured: binding result

Chain of B/MY04 LAH peptide (LAH-Fc fusion protein) (P03461 425-480 limits assumed): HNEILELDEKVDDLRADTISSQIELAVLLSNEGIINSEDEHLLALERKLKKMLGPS
Chain of H5/VN04 LAH peptide (LAH-Fc fusion protein) (P87506 416-472 limits assumed): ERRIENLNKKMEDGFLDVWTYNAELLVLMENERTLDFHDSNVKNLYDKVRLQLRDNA
Chain of H3/X31 LAH peptide (LAH-Fc fusion protein) (P03436 421-475 limits assumed): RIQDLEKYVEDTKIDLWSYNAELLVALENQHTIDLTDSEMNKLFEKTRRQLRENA

B1: S1V2-72 (antibody, V domains shown)
VH: QVQLVQSGAELKKPGASVKVSCKASGYTFTGNYIHWMRQVPGQGLEWMGWINPRTGDTHHAQKFQGRVDMTRDTSINTAYLELTRLESDDTALYYCARCVFATSQFDPWGQGTLVTVSS
VL: QSALTQPASVSGSPGQSITISCTGTNSDIGSHNLVSWYQQHPGKAPKVMIYDDSKRPSGVSNRFSGSKSGSTASLTISGLQSEDEADYYCCSYAGSSNWVFGGGTKLTLL
no binding: all assays above

Reference: patent US20250084152A1 (DUKE UNIVERSITY, published 2025)
